# Experiment: yeast display, Sf9 membrane polyspecificity reagent, FACS + sequencing; frameworks hold sequencing errors
# In short: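 Polyreactivity labels are assigned by the sorting gate from which each nanobody was recovered. The gates were low and high (top ~1%), set on anti-HA fluorescence for expression and streptavidin fluorescence for reagent binding. Before sorting, galactose-induced (36–48 hours) yeast display cells were stained for 1 hour at 4 °C with 10% biotinylated, detergent-solubilized Sf9 membrane reagent.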
row,Sequence,polyreactivity (PSR sort gate)
1,QVQLVESGGGLVQAGGSLRLSCAASGRIFGVYAMGWYRQAPGKERELVADISWSGSGTYADSVKGRFTISRDNAKNTVYLQMNSLKPEDTAVYYCNVDPAQIHAGYVGYDYWGQGTQVTVSS,low polyreactivity
2,QVQLVESGGGLVQAGGSLRLSCAASGRIFGVYAMGWYRQAPGKERELVADISWSGSGTYADSVKGRFTISRDNAKNTVYLQMNSLKPEDTAVYYCNVDPAQIHSGYVGYDYWGQGTQVTVSS,low polyreactivity
3,QVQLVESGGGLVQAGGSLRLSCAASGRIFGVYAMGWYRQSPGKERELVAPISRSGGRTYYADSVKGRFTISRDNAKNSDYLQMNSLKPEDTAVYYCNVVRWYYHPPLTGSRFDYWGQGTQVTVSS,high polyreactivity
4,QVQLVESGGGLVQAGGSLRLSCAASGRIFGVYVMGWYRQAPGKETELVAAISWSGSHTYYADSVKGRFTISRDNAKNTVYLQMNSLKPEDTAVYYCNADSYPDYTGPGLDWYDYWGQGTQVTVSS,low polyreactivity
5,QVQLVESGGGLVQAGGSLRLSCAASGRIFGWYAMGWSRQAPGKERELGAAITTADSTYYADSVKGRFTISRDNAKNTVYLQMNSLKPEDTAVYYCAADAYWEYDYWGQGTQVTVSS,low polyreactivity
6,QVQLVESGGGLVQAGGSLRLSCAASGRIFGWYAMGWYRQAPGKERELVAAISSSGVSTNYADSVKGRFTISRDNAKNTVYLQMNSLKPEDTAVYYCIARGFYWYRPYVNSNGGYWGQGTQVTVSS,high polyreactivity
7,QVQLVESGGGLVQAGGSLRLSCAASGRIFGYNAMGWYRQAPGKERELVAAIDYTGGSTYYADSVKGRFTISRDNAKNTVYLQMNSLKPEDTAVYYCAKDRTTPWEEDDYWGQGTQVTVSS,low polyreactivity
8,QVQLVESGGGLVQAGGSLRLSCAASGRIFGYNAMGWYRQAPGKERELVAAITNGGSTNYADSVKGRFTISRDNAKNTVYLQMNSLKPEDTAVYYCAVKWYPPGHDYWGQGTQVTVSS,low polyreactivity
9,QVQLVESGGGLVQAGGSLRLSCAASGRIFGYNVMGWYIQAPGKERELVAAISWGTGSTYADSMKGRFTISRDNAKKTVYLQMNSLIPVDTAVYYCAADSFIPPYDHWGQGTQVTVSS,low polyreactivity
10,QVQLVESGGGLVQAGGSLRLSCAASGRIFGYYAMGWSRQAPGKERELVATITFGGGSTYYADSVKGRFTISRDNAKNTVYFQMNSLKPEDTAVYYCAADSGYLGIYGDEYSWGQGTQVTVSS,low polyreactivity
11,QVQLVESGGGLVQAGGSLRLSCAASGRIFGYYAMGWYIQAPGKERELVAAINWRGGNTNYADSVKGRFTISRDNAKNTVYLQMNSLKPEDTAVYYCNAQVLVRPIQGEYGYWGQGTQVTVSS,low polyreactivity
12,QVQLVESGGGLVQAGGSLRLSCAASGRIFGYYAMGWYRQAPGKERELVAAISSRGSRTYYADSVKGRFTISRDNAKNTVYLQMNSLKPVDTAVYYCATYDYWGQGTQVTVSS,high polyreactivity
13,QVQLVESGGGLVQAGGSLRLSCAASGRIFGYYAMGWYRQAPGKERELVAAISSSGGSTYYADSVKGRFTISRDNAKNTVYLQMNSLKPEDTAVYYCAREFSDGLSGKFDYWGQGTQVTVSS,low polyreactivity
14,QVQLVESGGGLVQAGGSLRLSCAASGRIFGYYAMGWYRQAPGKERELVAAISTRGTSTYYADSVKGRFTISRDNAKNTVYLQMNSLKPEDTAVYYCARGFPPYRGTHMNYWGQGTQVTVSS,high polyreactivity
15,QVQLVESGGGLVQAGGSLRLSCAASGRIFGYYAMGWYRQAPGKERELVAAISYSTGGTSTYADSVKGRFTISRDNAKNTVYLQMNSLKPDDTAVYYCAKRIFTSARLNYWGQGTQVTVSS,high polyreactivity
16,QVQLVESGGGLVQAGGSLRLSCAASGRIFGYYAMGWYRQAPGKERELVAPITKTVGGTYYADSVKGRFTISRDNAKNTVYLQMNSLKPEDTAVYYCAARVWTGNGRSKGAYDYWGQGTQVTVSS,high polyreactivity
17,QVQLVESGGGLVQAGGSLRLSCAASGRIFGYYAMGWYRQAPGKESELVARISSSGGSTYYADSVKGRFTISRDNAKNTVYLQMNSLKPEDTAVYYCNTASNRSPGWRAEFDYWGQGTQVTVSS,low polyreactivity
18,QVQLVESGGGLVQAGGSLRLSCAASGRIFGYYARGWYRQAPGKEREFVAGITQRTDSTYYADSVKGRFTISRDNAKNTVYLQMNSLKPEDTAVYYCAARGYGGYHWGYYWGQGTQVTVSS,high polyreactivity
19,QVQLVESGGGLVQAGGSLRLSCAASGRIFGYYTMGWYRQAPGKERELVAAISSGGTTYYADSVKGRFTISRDNAKNTVYLQMNSLKPEDTAVYYCAADYYNTYGYDYWGQGTQVTVSS,low polyreactivity
20,QVQLVESGGGLVQAGGSLRLSCAASGRIFGYYTMGWYRQAPGKERELVADSSGGNTSYADSVKGRFTISRDNAKNTVYLQMNSLKPEDTAVYYCAKDLPGAWRGDDYWGQGTQVTVSS,low polyreactivity
21,QVQLVESGGGLVQAGGSLRLSCAASGRIFHANAMGWSRQAPGKERELVAGISRNGGRTYYADSVKGRFTISRDNAKNTVYLQMNSLKPEDTAVYYCNALHWQSKELDYFWGQGTQVTVSS,high polyreactivity

row,Sequence,polyreactivity (PSR sort gate)
1,QVQLVESGGGLVQAGGSLRLSCAASGRIFHGYAMGWYRQAPGKERELVAAISATGGSTYYADSVKGRFTISRDNAKNTVYLQMNSLKPEDTAVYYCARTNFYRSYDPGGRFYNYDYWGQGTQVTVSS,low polyreactivity
2,QVQLVESGGGLVQAGGSLRLSCAASGRIFHGYAMGWYRQAPGKERELVAAISSGGRTNYADSVKGRFTISRDNAKNTVYLQMNSLKPEDTAVYYCAAETQWYVRSRTLFYRYDYWGQGTQVTVSS,high polyreactivity
3,QVQLVESGGGLVQAGGSLRLSCAASGRIFHPYAMGWYRPAPGKERELVAAITNSGGITYADSVKGRFTISRDNAKNTVYLQMNSLKPEDTSVYYCNTATNRFHYKYRKPYDYWGQGTQVTVSS,low polyreactivity
4,QVQLVESGGGLVQAGGSLRLSCAASGRIFHRNAMGWYRPAPGKERELVATIRGNGGSTYYADSVKGRFTISRDNAKNTVYLQMNSLKPEDTAVYYCARDAQGYGGWWTYSRFYSWGQGTQVTVSS,high polyreactivity
5,QVQLVESGGGLVQAGGSLRLSCAASGRIFHRYAMGWYRQAPGKERELVASISRGDSTNYADSVKGRFTISRDNAKNTVYLQMNSLKPEDTAVYYCAARSFTRYRYYYWGQGTQVTVSS,high polyreactivity
6,QVQLVESGGGLVQAGGSLRLSCAASGRIFHRYAMGWYRQAPGKERELVASISRGDSTNYADSVKGRFTISRDNAKNTVYLQMNSLKPEDTAVYYCAAVPRRSGHQRWGATYYYWGQGTQVTVSS,high polyreactivity
7,QVQLVESGGGLVQAGGSLRLSCAASGRIFHSYTMGWYRQAPGKERELVAAINWSGTRTYYADSVKGRFTISRDNAKNTVYLQMNSLKPEDTAVYYCNRVGVTRSYRYDYWGQGTQVTVSS,high polyreactivity
8,QVQLVESGGGLVQAGGSLRLSCAASGRIFHSYVMGWYRQAPGKERELVARISSGGRTNYADSVKGRFTISRDNAKNSVYLQMNSLKPEDTAVYYCAATRLYPRSRYDYWGQGTQVTVSS,high polyreactivity
9,QVQLVESGGGLVQAGGSLRLSCAASGRIFHTYGRRWSRQAPGKEREFVAAITWTGGSTYYADSVKGRFTISRDNAKNTFYLQMNSLKPEDTAVYYCAADYPRDIIGSMDYWGQGTQVTVSW,low polyreactivity
10,QVQLVESGGGLVQAGGSLRLSCAASGRIFHVNAMGWYRQAPGKERELVATITTSGGTTYYADSVKGRFTISRDKAKNTVYLQMNSLKPEDTAVYYCAAKFPRQYSSRYNYWGQGTQVTVSS,low polyreactivity
11,QVQLVESGGGLVQAGGSLRLSCAASGRIFHWYAMGWYRQAPGKERELVATANTSYADSVKGRFTISRDNAKNTVYLQMNSLKPEDTALYYCATVGPRGRSLGDYWGQGTQVTVSS,low polyreactivity
12,QVQLVESGGGLVQAGGSLRLSCAASGRIFHYNAMGWYRQAPGKERELVAAISTGGSTNYADSVKGRFTISRDNAKNTVYLQMNSLKPEDTAVYYCNADLYVDPWTYFGYDYWGQGTQVTVSS,low polyreactivity
13,QVQLVESGGGLVQAGGSLRLSCAASGRIFHYYAMGWYRQAPGKERELVAAINKSGGRTYYADSVKGRFTISRDNAKNTVYLQMNSLKPEDTAVYYCAAQDGYWGQGTQVTVSS,high polyreactivity
14,QVQLVESGGGLVQAGGSLRLSCAASGRIFHYYAMGWYRQAPGKERELVAAINSAGSTKYADSVKGRFTISRDNAKNTVYLQMNSLKPEDTAVYYCAAERGSRDGGYDYWGQGTQVTVSS,low polyreactivity
15,QVQLVESGGGLVQAGGSLRLSCAASGRIFHYYAMGWYRQAPGKERELVAAIRWSGGDTYYADSVKGRFTISRDNAKNTVYLQMNSLKPEDTAVYYCAAYEHVYEYDYWGQGTQVTVSS,low polyreactivity
16,QVQLVESGGGLVQAGGSLRLSCAASGRIFHYYAMGWYRQAPGKERELVAAISWSGGSTYYADSVKGRFTISRDNAKNTVYLQMNSLKPEVTAVYYCNRQFGRRVYISHPGPGYWGQGTQVTVSS,high polyreactivity
17,QVQLVESGGGLVQAGGSLRLSCAASGRIFHYYAMGWYRQAPGKERELVASISTGGNTYYADSVKGRFTISRDNAKNTVYLQMNSLKPEVTAVYYCAAVTVRKFYKGINYWYEYWGEGTQVTVSS,high polyreactivity
18,QVQLVESGGGLVQAGGSLRLSCAASGRIFHYYMGWYRQAPGKERELVAVISSGDGTYYADSVKGRFTISRDNAKNTVYLQMNSLKPEDTAVYYCAADAPREYVDHYKYDDDYWGQGTQVNVSS,low polyreactivity
19,QVQLVESGGGLVQAGGSLRLSCAASGRIFIANTMGWYRQAPGKERELVAAITQRGDSTYYADSVKGRFTISRDNAKNTVYLQMNSLKPEDTAVYYCAARYYLSSYVRYNYWGQGTQVTVSS,high polyreactivity
20,QVQLVESGGGLVQAGGSLRLSCAASGRIFIAYAMGWYRQAPGKERELVAAITDDGGTNYADSVKGRFTISRDNAKNTVYLQMNSLKPEDTAVYYCAATYLIGYYYVWEYDYWGQGTQVTVSS,low polyreactivity

# Source: the nanobody polyreactivity screen of Harvey et al. (2022)
